FRET efficiency data for 4 substances are collected here from paper PMC4550699.

Experiment [1] addresses RFP_PCNA2 (Arabidopsis thaliana) (UniProt Q9ZW35). The experiment can be described thus: FRET or BRET; FLIM-FRET in nuclei of transiently transformed N. benthamiana leaf cells; donor GFP fusion, acceptor RFP fusion; E = (1 - tauDA/tauD) x 100%; FRET efficiency of free GFP/RFP (1.19%) used as threshold.
For experiment [2], the target named is RFP_PCNA1 (Arabidopsis thaliana) (UniProt Q9M7Q7). Described as above.
Chain of UniProt Q9M7Q7 (Q9M7Q7 whole entry): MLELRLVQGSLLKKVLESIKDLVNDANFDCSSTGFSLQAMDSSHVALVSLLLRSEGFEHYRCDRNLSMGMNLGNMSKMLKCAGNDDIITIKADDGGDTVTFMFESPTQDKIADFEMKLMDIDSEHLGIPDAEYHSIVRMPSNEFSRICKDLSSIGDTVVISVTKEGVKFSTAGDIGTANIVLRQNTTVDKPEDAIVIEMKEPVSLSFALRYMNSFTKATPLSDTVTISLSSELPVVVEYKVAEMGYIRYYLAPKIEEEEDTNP

Chain of UniProt Q9ZW35 (Q9ZW35 whole entry, the tested form may be a part): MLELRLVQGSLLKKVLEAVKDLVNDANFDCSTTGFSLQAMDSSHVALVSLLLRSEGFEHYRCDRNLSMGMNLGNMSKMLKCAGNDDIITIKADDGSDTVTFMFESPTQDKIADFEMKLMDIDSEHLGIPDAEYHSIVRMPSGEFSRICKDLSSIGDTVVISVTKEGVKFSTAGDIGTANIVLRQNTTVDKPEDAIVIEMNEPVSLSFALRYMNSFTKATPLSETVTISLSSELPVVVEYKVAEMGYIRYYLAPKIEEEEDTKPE

In the case of “CycD4;1_GFP (from UniProt Q8LGA1 1-308) (natural protein)”, the FRET efficiency stood at 1.98% in experiment [1] and 3.95% in experiment [2].

Regarding “CycD7;1_GFP (from UniProt Q9LZM0 1-341) (natural protein)”, the results for the FRET efficiency in experiment [1] and in experiment [2] were 3.75% and 6.25%, respectively.

With “CycD4;2_GFP (from UniProt Q0WQN9 1-298) (natural protein)”, the FRET efficiency was 5.14% in experiment [1] and 3.56% in experiment [2].

With “CycD6;1_GFP (from UniProt Q9ZR04 1-302) (natural protein)”, the FRET efficiency in experiment [1] amounted to 2.87%; in experiment [2], 4.1%.
